Results reported in article PMC6629641, “DNA translocation mechanism of the MCM complex and implications for replication initiation” (Nature Communications, 2019).

B1: SsoMCM-GGSGGS-ΔC (enzyme, Sulfolobus solfataricus, UniProt Q9UXG1 1-612, looked up)
chain: MEIPSKQIDYRDVFIEFLTTFKGNNNQNKYIERINELVAYRKKSLIIEFSDVLSFNENLAYEIINNTKIILPILEGALYDHILQLDPTYQRDIEKVHVRIVGIPRVIELRKIRSTDIGKLITIDGILVKVTPVKERIYKATYKHIHPDCMQEFEWPEDEEMPEVLEMPTICPKCGKPGQFRLIPEKTKLIDWQKAVIQERPEEVPSGQLPRQLEIILEDDLVDSARPGDRVKVTGILDIKQDSPVKRGSRAVFDIYMKVSSIEVSGGSGGSSEEDEKKIKDLAKDPWIRDRIISSIAPSIYGHWELKEALALALFGGVPKVLEDTRIRGDIHILIIGDPGTAKSQMLQFISRVAPRAVYTTGKGSTAAGLTAAVVREKGTGEYYLEAGALVLADGGIAVIDEIDKMRDEDRVAIHEAMEQQTVSIAKAGIVAKLNARAAVIAAGNPKFGRYISERPVSDNINLPPTILSRFDLIFILKDQPGEQDRELANYILDVHSGKSTKNIIDIDTLRKYIAYARKYVTPKITSEAKNLITDFFVEMRKKSSETPDSPILITPRQLEALIRISEAYAKMALKAEVTREDAERAINIMRLFLESVGVDMESGKIDID
notes: minichromosome maintenance (MCM) protein of Sulfolobus solfataricus, cut after amino acid 612 (the C-terminal HTH domain deleted); Homohexamer; crystallised with a 12-mer ssDNA, Mg2+, ADP and ADP-BeF3; also called nearly full-length SsoMCM; MCM hexamer; source: E. coli BL21(DE3)-RIPL, purified (Ni-NTA, size-exclusion, Ulp1 cleavage, anion exchange, gel filtration); not shown: His6, N-terminal, …
B2: wild-type full-length SsoMCM (enzyme, Sulfolobus solfataricus, UniProt Q9UXG1 1-686, looked up)
chain: MEIPSKQIDYRDVFIEFLTTFKGNNNQNKYIERINELVAYRKKSLIIEFSDVLSFNENLAYEIINNTKIILPILEGALYDHILQLDPTYQRDIEKVHVRIVGIPRVIELRKIRSTDIGKLITIDGILVKVTPVKERIYKATYKHIHPDCMQEFEWPEDEEMPEVLEMPTICPKCGKPGQFRLIPEKTKLIDWQKAVIQERPEEVPSGQLPRQLEIILEDDLVDSARPGDRVKVTGILDIKQDSPVKRGSRAVFDIYMKVSSIEVSQKVLDEVIISEEDEKKIKDLAKDPWIRDRIISSIAPSIYGHWELKEALALALFGGVPKVLEDTRIRGDIHILIIGDPGTAKSQMLQFISRVAPRAVYTTGKGSTAAGLTAAVVREKGTGEYYLEAGALVLADGGIAVIDEIDKMRDEDRVAIHEAMEQQTVSIAKAGIVAKLNARAAVIAAGNPKFGRYISERPVSDNINLPPTILSRFDLIFILKDQPGEQDRELANYILDVHSGKSTKNIIDIDTLRKYIAYARKYVTPKITSEAKNLITDFFVEMRKKSSETPDSPILITPRQLEALIRISEAYAKMALKAEVTREDAERAINIMRLFLESVGVDMESGKIDIDTIMTGKPKSAREKMMKIIEIIDSLAVSSECAKVKDILKEAQQVGIEKSNIEKLLTDMRKSGIIYEAKPECYKKV
notes: minichromosome maintenance (MCM) protein of Sulfolobus solfataricus, full length; also called pEE045.1; source: E. coli BL21(DE3)-RIPL, purified (Ni-NTA, size-exclusion, Ulp1 cleavage, anion exchange, gel filtration); not shown: His6, N-terminal, cleaved; SUMO, N-terminal, cleaved

Experiments:
[1] = target: the molecule itself; test: crystal structure; SsoMCM-GGSGGS-ΔC with a 12-mer oligonucleotide, magnesium, ADP and beryllium fluoride; hanging drop, 18 °C, 50 mM MES pH 6.0, 100 mM NaCl, 20 mM MgCl2, 9% PEG 8000; 3.15 Å
[2] = target: the molecule itself; test: SEC; last gel-filtration step after removal of the SUMO tag and anion exchange; oligomer judged from the elution volume

Protein | stoichiometry N [1] | stoichiometry N [2]
B1 | 6 | 
B2 |  | 6
